Tests used:
[1] = molecular target: VEGFR2 recombinant protein, intracellular domain (aa 789 to end) (UniProt P35968); assay: far-Western, overlay or dot blot; 0.5 to 8.0 ug VEGFR2 (aa 789 to end) on SDS-PAGE, transferred to PVDF; overlaid with V5-tagged L-FABP (1 ug/ml) for 12 hours; anti-V5 detection; Kd by non-linear regression (GraphPad Prism 5)
VEGFR2 (Homo sapiens) [2] = molecular target: VEGFR2 (Homo sapiens) (UniProt P35968); assay: SPR; settings: cited from earlier work
VEGFR2 (Homo sapiens) [3] = molecular target: VEGFR2 (Homo sapiens) (UniProt P35968); assay: ITC; settings: cited from earlier work

| Kd [1] [nM] | Substance | Kd (VEGFR2 (Homo sapiens) [2]) [nM] | Kd (VEGFR2 (Homo sapiens) [3]) [nM] |
| --- | --- | --- | --- |
| 0.25 | Liver fatty acid-binding protein (L-FABP), V5-tagged recombinant protein expressed in Hus cells (from UniProt P07148 1-127) (natural protein) |  |  |
|  | VEGF-A (from UniProt P15692) | 36.7 | 18 |
